These results are taken from US20260209316A1.

For assay [1], the target named is mucin domain-deleted Sudan GP (GPdMuc) (Sudan virus (SUDV)) (UniProt Q7T9D9). The assay can be described thus: BLI competition on Sudan GPdMuc; competitor 16F6.
Assay [2] has the same target. The assay can be described thus: BLI competition on Sudan GPdMuc; competitor 316L.
The target is the same in assay [3]. Kind of assay: BLI competition on Sudan GPdMuc; competitor 15H10.
The target is the same in assay [4]. The assay can be described thus: BLI competition on Sudan GPdMuc; competitor mAb166.
For assay [5] the target is unchanged. Kind of assay: BLI competition on Sudan GPdMuc (column in both tables); competitor 16F6.
For assay [6] the target is unchanged. The assay can be described thus: BLI competition on Sudan GPdMuc (column in both tables); competitor 316L.
Assay [7] shares this target. The assay can be described thus: BLI competition on Sudan GPdMuc (column in both tables); competitor 15H10.
Assay [8] shares this target. Kind of assay: BLI competition on Sudan GPdMuc (column in both tables); competitor mAb166.
In assay [9] the target is mucin domain-deleted Zaire GP (GPdMuc) (Ebola (Zaire) virus (EBOV)) (UniProt Q05320). The assay can be described thus: BLI competition on Zaire GPdMuc (upper table); competitor 13C6.
Assay [10] has the same target. Kind of assay: BLI competition on Zaire GPdMuc (upper table); competitor 316L.
Assay [11] has the same target. The assay can be described thus: BLI competition on Zaire GPdMuc (upper table); competitor 380L.
Assay [12] has the same target. Kind of assay: BLI competition on Zaire GPdMuc (upper table); competitor 15H10.
Assay [13] has the same target. Kind of assay: BLI competition on Zaire GPdMuc (upper table); competitor mAb114.
The target is the same in assay [14]. The assay can be described thus: BLI competition on Zaire GPdMuc (upper table); competitor KZ52 (self).

As for HIV-specific antibody VRC01, the % inhibition of binding in [1] was 31%; in [2] it was 29.9%; in assay [3], -296%; in assay [4] it was -43.1%; in [5], -7.53%; in [6] it was 20.6%. In addition, the % inhibition of binding in assay [7] was -333%; in assay [8], -82.7%.

With KZ52 (antibody), the % inhibition of binding in assay [9] was 13%; in assay [10] it was 8%; in assay [11] it was 10%; in [12], -1%; in assay [13], 9%; in assay [14], 96%.
